Measurements published in US20250122303A1, “TREATMENT AND PREVENTION OF CANCER USING HER3 ANTIGEN-BINDING MOLECULES” (Hummingbird Bioscience Pte. Ltd., priority 2021, published 2025).

Assays:
[1] = molecular target: human HER3:human NRG1 complex (human) (UniProt P21860); test: BLI (Octet QK384), antibody captured on AHC sensors, HER3-NRG1 complex (1:1 molar ratio) in solution
[2] = molecular target: recombinant biotinylated human HER3 protein (human) (UniProt P21860); test: plate ELISA dimerisation assay; human EGFR-His coated, constant HER3-biotin and NRG, antibody varied; blocked partner EGFR-His
[3] = molecular target: His-tagged human HER3 (human) (UniProt P21860); test: BLI competition: His-tagged human HER3 on anti-Penta-HIS tips saturated with LJM-716 (400 nM), then MM-121 as competing antibody (300 nM); no unit in the table, the y axis of FIG. 14A is Shift (nm)
FcgRIIA (H167) (human) = FcgRIIA (H167) (human) (UniProt P12318); test: Bio-Layer Interferometry (determined as described in Example 7)
FcgRIIA (H167) (human), sequence (P12318 36-218 limits assumed): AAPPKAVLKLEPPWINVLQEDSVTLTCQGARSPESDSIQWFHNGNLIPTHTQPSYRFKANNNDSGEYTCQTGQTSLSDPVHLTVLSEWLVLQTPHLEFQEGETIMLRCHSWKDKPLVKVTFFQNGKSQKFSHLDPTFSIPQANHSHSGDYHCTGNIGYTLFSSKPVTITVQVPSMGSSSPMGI

FcgRIIB (human) = FcgRIIB (human) (UniProt P31994); test: as above
FcgRIIB (human), sequence (P31994 46-217 limits assumed): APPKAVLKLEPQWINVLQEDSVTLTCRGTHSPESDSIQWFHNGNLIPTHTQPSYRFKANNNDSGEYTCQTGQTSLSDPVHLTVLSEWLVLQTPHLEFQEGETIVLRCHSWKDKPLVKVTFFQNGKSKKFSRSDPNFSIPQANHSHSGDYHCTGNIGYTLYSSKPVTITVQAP

moFcRn (mouse) = moFcRn (mouse) (UniProt Q61559); test: as above
[4] = molecular target: His-tagged FcγRIIIa (V158) (human) (UniProt P08637); test: as above
FcgRIIA (R167) (human) = FcgRIIA (R167) (human) (UniProt P12318); test: as above
FcgRIIA (R167) (human), sequence (P12318 36-218 H167R limits assumed): as the sequence (P12318 36-218 limits assumed) above, with H132R counted along it

FcRn (human) = FcRn (human) (UniProt P55899); test: as above

Kd [1] [nM]	koff [1] [s⁻¹]	kon [1] [M⁻¹ s⁻¹]	IC50 [2] [nM]	response of the competing antibody (competition table) [3]	Kd (FcgRIIA (H167) (human)) [nM]	Kd (FcgRIIB (human)) [nM]	Kd (moFcRn (mouse)) [nM]	Kd [4] [nM]	Kd (FcgRIIA (R167) (human)) [nM]	Kd (FcRn (human)) [nM]	Binder
16.8	–	–	–	–	–	–	–	–	–	–	LJM716 (antibody, INN chains, looked up, human IgG1, V domains shown) VH: EVQLLESGGGLVQPGGSLRLSCAASGFTFSSYAMSWVRQAPGKGLEWVSAINSQGKSTYYADSVKGRFTISRDNSKNTLYLQMNSLRAEDTAVYYCARWGDEGFDIWGQGTLVTVSS VL: DIQMTQSPSSLSASVGDRVTITCRASQGISNWLAWYQQKPGKAPKLLIYGASSLQSGVPSRFSGSGSGTDFTLTISSLQPEDFATYYCQQYSSFPTTFGQGTKVEIK
1.92	0.000231	120000	54.2	0.693	222	1440	6.69	7050	243	11.5	MM-121 (antibody, INN chains, looked up, human IgG2) heavy: EVQLLESGGGLVQPGGSLRLSCAASGFTFSHYVMAWVRQAPGKGLEWVSSISSSGGWTLYADSVKGRFTISRDNSKNTLYLQMNSLRAEDTAVYYCTRGLKMATIFDYWGQGTLVTVSSASTKGPSVFPLAPCSRSTSESTAALGCLVKDYFPEPVTVSWNSGALTSGVHTFPAVLQSSGLYSLSSVVTVPSSNFGTQTYTCNVDHKPSNTKVDKTVERKCCVECPPCPAPPVAGPSVFLFPPKPKDTLMISRTPEVTCVVVDVSHEDPEVQFNWYVDGVEVHNAKTKPREEQFNSTFRVVSVLTVVHQDWLNGKEYKCKVSNKGLPAPIEKTISKTKGQPREPQVYTLPPSREEMTKNQVSLTCLVKGFYPSDIAVEWESNGQPENNYKTTPPMLDSDGSFFLYSKLTVDKSRWQQGNVFSCSVMHEALHNHYTQKSLSLSPG light: QSALTQPASVSGSPGQSITISCTGTSSDVGSYNVVSWYQQHPGKAPKLIIYEVSQRPSGVSNRFSGSKSGNTASLTISGLQTEDEADYYCCSYAGSSIFVIFGGGTKVTVLGQPKAAPSVTLFPPSSEELQANKATLVCLVSDFYPGAVTVAWKADGSPVKVGVETTKPSKQSNNKYAASSYLSLTPEQWKSHRSYSCRVTHEGSTVEKTVAPAECS
